Experimental data published in IntAct's records for PubMed 31515488.

B1: Notch homolog 2 N-terminal-like protein A (Homo sapiens), Q7Z3S9 (parent)
chain: MCVTYHNGTGYCKCPEGFLGEYCQHRDPCEKNRCQNGGTCVAQAMLGKATCRCASGFTGEDCQYSTSHPCFVSRPCLNGGTCHMLSRDTYECTCQVGFTGKECQWTDACLSHPCANGSTCTTVANQFSCKCLTGFTGQKCETDVNECDIPGHCQHGGTCLNLPGSYQCQCLQGFTGQYCDSLYVPCAPSPCVNGGTCRQTGDFTFECNCLPETVRRGTELWERDREVWNGKEHDEN
partner: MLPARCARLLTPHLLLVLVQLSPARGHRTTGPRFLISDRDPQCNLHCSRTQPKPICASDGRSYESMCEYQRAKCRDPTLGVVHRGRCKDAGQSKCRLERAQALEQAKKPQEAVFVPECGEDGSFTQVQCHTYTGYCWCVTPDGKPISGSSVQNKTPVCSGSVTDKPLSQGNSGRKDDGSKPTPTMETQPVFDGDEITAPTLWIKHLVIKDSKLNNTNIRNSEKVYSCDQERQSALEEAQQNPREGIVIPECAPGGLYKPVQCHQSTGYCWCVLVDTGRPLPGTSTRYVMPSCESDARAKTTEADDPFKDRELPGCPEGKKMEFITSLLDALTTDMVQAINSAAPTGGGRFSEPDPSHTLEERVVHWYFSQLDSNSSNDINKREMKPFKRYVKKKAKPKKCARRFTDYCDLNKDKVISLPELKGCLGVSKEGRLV
B2: Protein BANP (Homo sapiens), Q8N9N5-2 (parent)
chain: MMSEHDLADVVQIAVEDLSPDHPVVLENHVVTDEDEPALKRQRLEINCQDPSIKSFLYSINQTICLRLDSIEAKLQALEATCKSLEEKLDLVTNKQHSPIQVPMVAGSPLGATQTCNKVRCAVPGRRQNTIVVKVPGQEDSHHEDGESGSEASDSVSSCGQAGSQSIGSNVTLITLNSEEDYPNGTWLGDENNPEMRVRCAIIPSDMLHISTNCRTAEKMALTLLDYLFHREVQAVSNLSGQGKHGKKQLDPLTIYGIRCHLFYKFGITESDWYRIKQSIDSKCRTAWRRKQRGQSLAVKSFSRRTPNSSSYCPSEPMMSTPPPASELPQPQPQPQALHYALANAQQVQIHQIGEDGQVQVIPQGHLHIAQVPQGEQVQITQDSEGNLQIHHVGQDGQVLQGAQLIAVASSDPAAAGVDGSPLQGSDIQVQYVQLAPVSDHTAGAQTAEALQPTLQPEMQLEHGAIQIQ
B3: Maspardin (Homo sapiens), Q9NZD8 (parent)
chain: MGEIKVSPDYNWFRGTVPLKKIIVDDDDSKIWSLYDAGPRSIRCPLIFLPPVSGTADVFFRQILALTGWGYRVIALQYPVYWDHLEFCDGFRKLLDHLQLDKVHLFGASLGGFLAQKFAEYTHKSPRVHSLILCNSFSDTSIFNQTWTANSFWLMPAFMLKKIVLGNFSSGPVDPMMADAIDFMVDRLESLGQSELASRLTLNCQNSYVEPHKIRDIPVTIMDVFDQSALSTEAKEEMYKLYPNARRAHLKTGGNFPYLCRSAEVNLYVQIHLLQFHGTKYAAIDPSMVSAEELEVQKGSLGISQEEQ
B4: Protein FAM9B (Homo sapiens), Q8IZU0 (parent)
chain: MAAWGKKHAGKDPVRDECEERNRFTETREEDVTDEHGEREPFAETDEHTGANTKKPEDTAEDLTAKRKRMKMDKTCSKTKNKSKHALRKKQLKRQKRDYIHSLKLLNVLEEYITDEQKEEEEEEGEEEELIRIFQEQQKKWQQYRSVRRERLKEMKLLRDQFVKALEDFEDLCDRVFSDEDSELDN
partner: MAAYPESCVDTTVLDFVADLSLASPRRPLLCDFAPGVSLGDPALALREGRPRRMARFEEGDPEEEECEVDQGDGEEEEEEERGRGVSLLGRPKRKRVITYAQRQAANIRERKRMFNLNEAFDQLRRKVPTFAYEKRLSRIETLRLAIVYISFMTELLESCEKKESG
B5: TBC1 domain family member 7 (Homo sapiens), Q9P0N9 (parent)
chain: MTEDSQRNFRSVYYEKVGFRGVEEKKSLEILLKDDRLDTEKLCTFSQRFPLPSMYRALVWKVLLGILPPHHESHAKVMMYRKEQYLDVLHALKVVRFVSDATPQAEVYLRMYQLESGKLPRSPSFPLEPDDEVFLAIAKAMEEMVEDSVDCYWITRRFVNQLNTKYRDSLPQLPKAFEQYLNLEDGRLLTHLRMCSAAPKLPYDLWFKRCFAGCLPESSLQRVWDKVVSGSCKILVFVAVEILLTFKIKVMALNSAEKITKFLENIPQDSSDAIVSKAIDLWHKHCGTPVHSS
B6: Protein boule-like (Homo sapiens), Q8N9W6 (parent)
chain: MQTDSLSPSPNPVSPVPLNNPTSAPRYGTVIPNRIFVGGIDFKTNESDLRKFFSQYGSVKEVKIVNDRAGVSKGYGFVTFETQEDAQKILQEAEKLNYKDKKLNIGPAIRKQQVGIPRSSIMPAAGTMYLTTSTGYPYTYHNGVAYFHTPEVTSVPPPWPSRSVCSSPVMVAQPIYQQPAYHYQATTQYLPGQWQWSVPQPSASSAPFLYLQPSEVIYQPVEIAQDGGCVPPPLSLMETSVPEPYSDHGVQATYHQVYAPSAITMPAPVMQPEPIKTVWSIHY
partner: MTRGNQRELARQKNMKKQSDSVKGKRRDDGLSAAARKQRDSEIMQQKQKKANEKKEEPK
B7: BUD13 homolog (Homo sapiens), Q9BRD0 (parent)
chain: MAAAPPLSKAEYLKRYLSGADAGVDRGSESGRKRRKKRPKPGGAGGKGMRIVDDDVSWTAISTTKLEKEEEEDDGDLPVVAEFVDERPEEVKQMEAFRSSAKWKLLGGHNEDLPSNRHFRHDTPDSSPRRVRHGTPDPSPRKDRHDTPDPSPRRARHDTPDPSPLRGARHDSDTSPPRRIRHDSSDTSPPRRARHDSPDPSPPRRPQHNSSGASPRRVRHDSPDPSPPRRARHGSSDISSPRRVHNNSPDTSRRTLGSSDTQQLRRARHDSPDLAPNVTYSLPRTKSGKAPERASSKTSPHWKESGASHLSFPKNSKYEYDPDISPPRKKQAKSHFGDKKQLDSKGDCQKATDSDLSSPRHKQSPGHQDSDSDLSPPRNRPRHRSSDSDLSPPRRRQRTKSSDSDLSPPRRSQPPGKKAAHMYSGAKTGLVLTDIQREQQELKEQDQETMAFEAEFQYAETVFRDKSGRKRNLKLERLEQRRKAEKDSERDELYAQWGKGLAQSRQQQQNVEDAMKEMQKPLARYIDDEDLDRMLREQEREGDPMANFIKKNKAKENKNKKVRPRYSGPAPPPNRFNIWPGYRWDGVDRSNGFEQKRFARLASKKAVEELAYKWSVEDM
partner: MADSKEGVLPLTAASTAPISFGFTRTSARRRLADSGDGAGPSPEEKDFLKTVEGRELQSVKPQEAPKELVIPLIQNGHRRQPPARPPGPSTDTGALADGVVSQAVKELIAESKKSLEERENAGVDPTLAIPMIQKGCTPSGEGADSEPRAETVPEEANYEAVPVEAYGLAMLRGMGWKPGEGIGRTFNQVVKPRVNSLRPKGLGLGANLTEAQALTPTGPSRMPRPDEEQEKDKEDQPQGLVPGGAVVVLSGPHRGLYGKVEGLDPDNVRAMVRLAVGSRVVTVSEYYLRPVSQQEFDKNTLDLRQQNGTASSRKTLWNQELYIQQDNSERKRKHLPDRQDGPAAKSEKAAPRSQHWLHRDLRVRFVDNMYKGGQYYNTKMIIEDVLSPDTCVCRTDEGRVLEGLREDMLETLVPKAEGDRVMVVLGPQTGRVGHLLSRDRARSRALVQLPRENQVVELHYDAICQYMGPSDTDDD

Variants of: B1
Conditions: with smoc1_human SMOC1, Q9H4F8

| Variant | effect of a mutation on the interaction |
| --- | --- |
| A115T | with no effect |
| R74Q | with no effect |

Variants of: B2
Conditions: with kcc2d_human CAMK2D

| Variant | effect of a mutation on the interaction |
| --- | --- |
| A162V | with no effect |

Variants of: B2
Conditions: with FAM117B

| Variant | effect of a mutation on the interaction |
| --- | --- |
| A162V | with no effect |

Variants of: B2
Conditions: with aakb2_human PRKAB2, O43741
aakb2_human PRKAB2, O43741, sequence (O43741 whole entry): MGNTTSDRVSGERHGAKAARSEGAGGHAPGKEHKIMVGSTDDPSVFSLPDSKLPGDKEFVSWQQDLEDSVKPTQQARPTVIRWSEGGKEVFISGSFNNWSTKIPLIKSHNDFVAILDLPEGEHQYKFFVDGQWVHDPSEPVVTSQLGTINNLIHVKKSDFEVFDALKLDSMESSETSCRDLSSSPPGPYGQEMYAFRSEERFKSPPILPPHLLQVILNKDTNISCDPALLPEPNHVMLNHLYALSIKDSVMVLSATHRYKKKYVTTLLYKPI

| Variant | effect of a mutation on the interaction |
| --- | --- |
| A162V | with no effect |

Variants of: B2
Conditions: with pf21a_human PHF21A

| Variant | effect of a mutation on the interaction |
| --- | --- |
| A162V | with no effect |

Variants of: B3
Conditions: with rtn4_human RTN4, Q9NQC3
rtn4_human RTN4, Q9NQC3, sequence (Q9NQC3 whole entry): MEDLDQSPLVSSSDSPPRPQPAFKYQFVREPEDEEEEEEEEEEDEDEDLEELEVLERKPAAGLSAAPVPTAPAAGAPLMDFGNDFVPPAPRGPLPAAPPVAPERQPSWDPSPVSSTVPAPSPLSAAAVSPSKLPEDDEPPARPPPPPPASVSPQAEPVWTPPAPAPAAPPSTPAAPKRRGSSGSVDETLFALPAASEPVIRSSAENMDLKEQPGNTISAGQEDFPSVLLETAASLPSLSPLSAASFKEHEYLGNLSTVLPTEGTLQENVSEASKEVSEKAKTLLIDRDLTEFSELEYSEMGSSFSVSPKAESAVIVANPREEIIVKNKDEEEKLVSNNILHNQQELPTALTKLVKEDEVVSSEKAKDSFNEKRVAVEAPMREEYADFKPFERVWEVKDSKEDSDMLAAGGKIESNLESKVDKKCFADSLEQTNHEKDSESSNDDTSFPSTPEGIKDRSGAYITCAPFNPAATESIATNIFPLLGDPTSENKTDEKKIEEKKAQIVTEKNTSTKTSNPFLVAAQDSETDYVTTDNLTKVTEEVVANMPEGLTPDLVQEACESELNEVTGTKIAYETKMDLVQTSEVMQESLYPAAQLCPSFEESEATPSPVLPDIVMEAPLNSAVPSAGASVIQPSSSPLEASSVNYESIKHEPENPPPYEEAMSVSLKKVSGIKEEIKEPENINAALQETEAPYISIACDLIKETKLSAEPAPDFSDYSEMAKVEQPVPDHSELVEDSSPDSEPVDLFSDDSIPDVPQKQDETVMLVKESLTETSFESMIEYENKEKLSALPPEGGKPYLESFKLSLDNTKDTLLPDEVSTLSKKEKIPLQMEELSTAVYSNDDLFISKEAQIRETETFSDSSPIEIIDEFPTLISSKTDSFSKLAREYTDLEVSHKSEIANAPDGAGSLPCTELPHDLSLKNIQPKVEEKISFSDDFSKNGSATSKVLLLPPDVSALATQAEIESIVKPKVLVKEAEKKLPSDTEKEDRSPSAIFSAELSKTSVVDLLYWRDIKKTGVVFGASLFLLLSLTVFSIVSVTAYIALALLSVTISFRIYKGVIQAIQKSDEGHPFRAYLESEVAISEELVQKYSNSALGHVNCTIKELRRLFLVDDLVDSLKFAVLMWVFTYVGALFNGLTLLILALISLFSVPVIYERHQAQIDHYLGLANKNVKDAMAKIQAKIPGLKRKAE

| Variant | effect of a mutation on the interaction |
| --- | --- |
| A180T | with no effect |

Variants of: B3
Conditions: with cryaa_human CRYAA

| Variant | effect of a mutation on the interaction |
| --- | --- |
| A180T | disrupting interaction strength |
| H272D | disrupting interaction strength |

Variants of: B3
Conditions: with reep6_human REEP6, Q96HR9
reep6_human REEP6, Q96HR9, sequence (Q96HR9 whole entry): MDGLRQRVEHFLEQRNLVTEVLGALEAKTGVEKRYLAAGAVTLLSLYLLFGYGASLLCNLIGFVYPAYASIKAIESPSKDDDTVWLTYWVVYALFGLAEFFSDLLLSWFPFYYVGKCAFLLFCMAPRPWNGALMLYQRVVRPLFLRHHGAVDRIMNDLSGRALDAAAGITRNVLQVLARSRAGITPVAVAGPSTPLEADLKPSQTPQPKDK

| Variant | effect of a mutation on the interaction |
| --- | --- |
| A180T | with no effect |

Variants of: B3
Conditions: with traf2_human TRAF2, Q12933
traf2_human TRAF2, Q12933, sequence (Q12933 whole entry): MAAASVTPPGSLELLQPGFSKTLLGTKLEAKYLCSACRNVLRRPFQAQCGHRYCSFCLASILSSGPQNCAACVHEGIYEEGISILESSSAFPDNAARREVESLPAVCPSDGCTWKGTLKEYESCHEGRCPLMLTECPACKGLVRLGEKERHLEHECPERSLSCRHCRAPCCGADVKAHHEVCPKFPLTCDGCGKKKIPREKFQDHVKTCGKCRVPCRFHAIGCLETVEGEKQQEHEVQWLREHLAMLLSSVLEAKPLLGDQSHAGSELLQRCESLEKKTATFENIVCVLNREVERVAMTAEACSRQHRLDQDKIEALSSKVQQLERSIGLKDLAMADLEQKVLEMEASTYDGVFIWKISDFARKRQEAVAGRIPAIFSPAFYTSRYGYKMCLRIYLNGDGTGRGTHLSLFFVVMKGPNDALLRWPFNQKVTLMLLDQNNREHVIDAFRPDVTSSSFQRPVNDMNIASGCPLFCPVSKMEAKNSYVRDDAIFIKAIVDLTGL

| Variant | effect of a mutation on the interaction |
| --- | --- |
| A180T | with no effect |
| H272D | disrupting interaction strength |

Variants of: B3
Conditions: with spre2_human SPRED2, Q7Z698
spre2_human SPRED2, Q7Z698, sequence (Q7Z698 whole entry): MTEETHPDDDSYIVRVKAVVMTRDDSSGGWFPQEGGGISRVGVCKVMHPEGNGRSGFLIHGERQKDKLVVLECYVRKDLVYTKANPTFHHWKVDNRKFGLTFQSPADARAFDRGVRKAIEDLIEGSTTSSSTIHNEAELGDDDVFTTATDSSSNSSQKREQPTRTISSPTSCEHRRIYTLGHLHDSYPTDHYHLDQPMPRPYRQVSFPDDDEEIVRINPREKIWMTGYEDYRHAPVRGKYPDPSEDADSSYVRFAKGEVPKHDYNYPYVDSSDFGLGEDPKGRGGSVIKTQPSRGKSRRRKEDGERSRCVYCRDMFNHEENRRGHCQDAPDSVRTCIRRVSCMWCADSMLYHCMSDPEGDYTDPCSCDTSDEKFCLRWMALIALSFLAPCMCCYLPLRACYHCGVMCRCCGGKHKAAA

| Variant | effect of a mutation on the interaction |
| --- | --- |
| A180T | with no effect |

Variants of: B3
Conditions: with htf4_human TCF12, Q99081
htf4_human TCF12, Q99081, sequence (Q99081 whole entry): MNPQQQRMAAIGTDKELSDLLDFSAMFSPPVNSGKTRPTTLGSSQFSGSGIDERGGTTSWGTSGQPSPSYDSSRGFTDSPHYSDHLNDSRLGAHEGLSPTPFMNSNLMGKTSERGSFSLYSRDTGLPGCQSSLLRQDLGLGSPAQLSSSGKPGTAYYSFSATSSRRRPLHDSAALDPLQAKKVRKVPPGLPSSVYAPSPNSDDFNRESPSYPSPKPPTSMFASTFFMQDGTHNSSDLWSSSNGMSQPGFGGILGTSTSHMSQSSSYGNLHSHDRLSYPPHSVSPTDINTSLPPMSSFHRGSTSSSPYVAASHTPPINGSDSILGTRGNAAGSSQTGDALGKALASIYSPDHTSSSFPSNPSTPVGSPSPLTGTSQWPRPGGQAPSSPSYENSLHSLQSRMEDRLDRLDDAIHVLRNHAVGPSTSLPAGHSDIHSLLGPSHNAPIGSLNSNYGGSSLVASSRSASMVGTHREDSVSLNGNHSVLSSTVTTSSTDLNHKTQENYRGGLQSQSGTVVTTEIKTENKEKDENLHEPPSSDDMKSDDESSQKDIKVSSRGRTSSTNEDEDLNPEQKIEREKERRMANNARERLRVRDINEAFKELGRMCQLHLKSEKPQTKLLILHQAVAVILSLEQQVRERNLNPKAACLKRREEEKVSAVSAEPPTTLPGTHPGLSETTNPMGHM

| Variant | effect of a mutation on the interaction |
| --- | --- |
| A180T | with no effect |
| H272D | disrupting interaction strength |

Variants of: B3
Conditions: with atrap_human AGTRAP

| Variant | effect of a mutation on the interaction |
| --- | --- |
| A180T | with no effect |

Variants of: B3
Conditions: with akir2_human AKIRIN2, Q53H80
akir2_human AKIRIN2, Q53H80, sequence (Q53H80 whole entry): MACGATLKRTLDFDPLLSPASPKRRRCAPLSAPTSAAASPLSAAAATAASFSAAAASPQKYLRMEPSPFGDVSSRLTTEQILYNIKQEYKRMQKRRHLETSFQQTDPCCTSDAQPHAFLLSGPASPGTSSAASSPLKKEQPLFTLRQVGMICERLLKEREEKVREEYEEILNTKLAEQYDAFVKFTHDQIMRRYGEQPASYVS

| Variant | effect of a mutation on the interaction |
| --- | --- |
| A180T | with no effect |

Variants of: B4
Conditions: with fer3l_human FERD3L

| Variant | effect of a mutation on the interaction |
| --- | --- |
| R23H | with no effect |

Variants of: B5
Conditions: with hook1_human HOOK1, Q9UJC3
hook1_human HOOK1, Q9UJC3, sequence (Q9UJC3 whole entry): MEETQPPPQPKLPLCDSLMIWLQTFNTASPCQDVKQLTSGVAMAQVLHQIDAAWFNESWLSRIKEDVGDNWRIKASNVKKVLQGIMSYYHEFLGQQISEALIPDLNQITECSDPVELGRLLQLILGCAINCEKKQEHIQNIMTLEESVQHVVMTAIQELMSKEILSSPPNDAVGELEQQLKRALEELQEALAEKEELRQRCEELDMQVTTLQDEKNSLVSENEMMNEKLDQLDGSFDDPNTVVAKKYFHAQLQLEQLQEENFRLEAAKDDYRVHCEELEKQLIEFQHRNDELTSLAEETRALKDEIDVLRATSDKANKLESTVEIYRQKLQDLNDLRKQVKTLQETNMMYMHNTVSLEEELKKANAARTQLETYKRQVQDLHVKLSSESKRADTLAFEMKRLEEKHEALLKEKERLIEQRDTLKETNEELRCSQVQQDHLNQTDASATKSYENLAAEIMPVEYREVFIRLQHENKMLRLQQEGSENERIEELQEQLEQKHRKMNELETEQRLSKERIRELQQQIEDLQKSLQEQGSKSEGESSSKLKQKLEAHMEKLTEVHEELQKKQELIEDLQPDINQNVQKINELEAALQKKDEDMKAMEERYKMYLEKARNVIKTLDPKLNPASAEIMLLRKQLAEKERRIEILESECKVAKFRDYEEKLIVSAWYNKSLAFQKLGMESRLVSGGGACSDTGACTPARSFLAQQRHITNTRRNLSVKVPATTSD

| Variant | effect of a mutation on the interaction |
| --- | --- |
| L67W | disrupting interaction strength |

Variants of: B5
Conditions: with KRT19, P08727
KRT19, P08727, sequence (P08727 whole entry): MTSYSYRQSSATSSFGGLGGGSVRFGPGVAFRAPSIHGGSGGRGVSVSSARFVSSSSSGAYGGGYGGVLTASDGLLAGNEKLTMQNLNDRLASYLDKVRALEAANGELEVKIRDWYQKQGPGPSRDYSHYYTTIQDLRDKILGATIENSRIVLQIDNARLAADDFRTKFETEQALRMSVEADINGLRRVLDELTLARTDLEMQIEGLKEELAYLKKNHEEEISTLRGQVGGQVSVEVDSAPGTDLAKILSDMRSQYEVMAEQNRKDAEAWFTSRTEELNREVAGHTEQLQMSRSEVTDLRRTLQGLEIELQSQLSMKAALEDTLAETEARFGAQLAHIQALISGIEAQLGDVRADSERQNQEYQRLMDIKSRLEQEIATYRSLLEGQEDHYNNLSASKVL

| Variant | effect of a mutation on the interaction |
| --- | --- |
| L67W | disrupting interaction strength |

Variants of: B6
Conditions: with serf2_human SERF2, P84101

| Variant | effect of a mutation on the interaction |
| --- | --- |
| V78I | with no effect |
| M270I | with no effect |
| S9Y | disrupting interaction strength |

Variants of: B7
Conditions: with gpkow_human GPKOW

| Variant | effect of a mutation on the interaction |
| --- | --- |
| P148L | with no effect |
